# Measurements taken from US20120204275A1 (NEOTOPE BIOSCIENCES, published 2012).
# B1: mouse monoclonal antibody 15G8 (antibody, V domains shown)
# VH: EVKLVESGGGLVKPGGSLKLSCAASGFTFSFYAMSWVRQTPEKRLEWVASLSRGGSTYYPDSVKGRFTISRDNARNTLYLQMSSLRSEDTAMFYCAREGATALYAMDYWGQGTSVTVSS
# VL: DVLMTQTPLSLPVSLGDQASISCRSSQSIVHSNGNTYLQWYLQKPGQSPKLLIYKVSNRFSGVPDRFSGSGSGTDFTLKISRVEAEDLGIYYCFQGSHVPWTFGGGTKLEIK
# notes: Same variable regions as 12C12 and 15E10; also called m15G8; mouse 15G8
# Biological target: T1, full-length ApoE4 (human, UniProt P02649 19-317)
# T1 construct: In cell lysate; P02649 is printed for the E3 allele (residues 19-317); also called ApoE4(1-299)
# T1 chain: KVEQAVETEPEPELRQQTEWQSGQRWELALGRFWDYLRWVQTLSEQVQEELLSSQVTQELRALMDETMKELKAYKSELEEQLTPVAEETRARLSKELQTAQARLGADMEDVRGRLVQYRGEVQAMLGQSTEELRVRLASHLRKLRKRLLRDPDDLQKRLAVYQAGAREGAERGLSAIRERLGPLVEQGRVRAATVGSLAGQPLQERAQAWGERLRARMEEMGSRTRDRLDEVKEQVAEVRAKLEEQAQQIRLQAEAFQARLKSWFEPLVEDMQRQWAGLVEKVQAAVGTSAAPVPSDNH
# Assay: immunoprecipitation from cell lysate, western blot with 1F9
# Method: Cell Lysates preparation: Media was aspirated. Cells were treated for desired time by adding fresh media containing regulator. Media was then removed and cells rinsed with ice-cold PBS to harvest cells under nondenaturing conditions. PBS was removed, and 0.5 ml ice-cold 1× cell lysis buffer was added to each plate (10 cm). The plates were incubated on ice for 5 minutes. Cells were scraped off the plates and transferred to microcentrifuge tubes. The cells were kept on ice, and sonicated on ice three times for 5 seconds each. The samples were then microcentrifuged for 10 minutes at 14,000×g, 4° C., and the supernatant was transferred to a new tube. When necessary, lysate was stored at −80° C.
# The membrane was then incubated with primary antibody anti-ApoE4 antibody 1F9 (MBL International Corp., Cat# M067-3) in 10 ml primary antibody dilution buffer with gentle agitation overnight at 4° C. […]
# Lysates of full-length ApoE3, full-length ApoE4, ApoE3(1-272), and ApoE4(1-272) lysates were detected using Western blot with 1 μg/ml 1F9 (Medical and Biological Laboratories) (Lanes 1-4; FIG. 3). […] The m15G8 immunoprecipitation were then detected using Western blot with 1 μg/ml 1F9 (Lanes 5-8; FIG. 3). […]
binder,measurement,value
B1,binding result,no binding
